T1: human CD20 antigen (human, UniProt P11836 1-297)
T1 construct: whole, on cells; also called Bp35; B1
T1 sequence (looked up): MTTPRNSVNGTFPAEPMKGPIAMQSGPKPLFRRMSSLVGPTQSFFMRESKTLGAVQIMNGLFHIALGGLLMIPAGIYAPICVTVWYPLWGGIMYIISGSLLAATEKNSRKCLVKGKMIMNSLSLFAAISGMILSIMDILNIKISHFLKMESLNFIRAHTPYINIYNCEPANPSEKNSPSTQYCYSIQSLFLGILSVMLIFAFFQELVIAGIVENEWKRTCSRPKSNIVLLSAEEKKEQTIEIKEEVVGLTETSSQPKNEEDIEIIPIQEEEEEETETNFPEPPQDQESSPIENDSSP


Assays:
[1] = target: human CD20 antigen (human) (UniProt P11836); assay: flow cytometry, EB1 cells (CD20 positive)
[2] = target: human CD20 antigen (human) (UniProt P11836); assay: flow cytometry, EHEB cells (CD20 positive)
[3] = target: human CD20 antigen (human) (UniProt P11836); assay: flow cytometry, Daudi cells (CD20 positive)
[4] = target: human CD20 antigen (human) (UniProt P11836); assay: flow cytometry, Daudi cells (CD20 positive); remark: listed apart in the source
human CD20 antigen [5] = target: T1, human CD20 antigen; assay: flow cytometry, EB1 cells (CD20 positive)
Method: (§1) Binding specificity was assessed by Fluorometric Microvolume Assay Technology (FMAT, Applied Biosystems 8200 Cellular Detection System) and Flow Cytometry, which tabulates Mean Fluorescence Intensities (MFI) of staining on CD20 positive (CD20⁺) and CD20 negative cell lines.

human CD20 antigen [6] = target: T1, human CD20 antigen; assay: flow cytometry, EHEB cells (CD20 positive)
Method: (§2) Binding specificity was assessed by Flow Cytometry, which tabulates Mean Fluorescence Intensities (MFI) of staining on CD20 positive (CD20⁺) and CD20 negative cell lines.

human CD20 antigen [7] = target: T1, human CD20 antigen; assay: flow cytometry, Daudi cells (CD20 positive)
Method: as §1

human CD20 antigen [8] = target: T1, human CD20 antigen; assay: flow cytometry, Daudi cells (CD20 positive); remark: listed apart in the source
Method: as §2

human CD20 antigen [9] = target: T1, human CD20 antigen; assay: flow cytometry, CHO.CD20 cells (CD20 positive)
Method: as §2

| Molecule | Mean Fluorescence Intensity (MFI) (human CD20 antigen [5]) | Mean Fluorescence Intensity (MFI) (human CD20 antigen [6]) | Mean Fluorescence Intensity (MFI) (human CD20 antigen [7]) | Mean Fluorescence Intensity (MFI) (human CD20 antigen [8]) | Mean Fluorescence Intensity (MFI) (human CD20 antigen [9]) | other results |
| --- | --- | --- | --- | --- | --- | --- |
| mAb 271 (rituximab-sequence antibody) |  |  |  |  |  | Mean Fluorescence Intensity (MFI) [1]: 429 MFI; Mean Fluorescence Intensity (MFI) [2]: 130 MFI; Mean Fluorescence Intensity (MFI) [3]: 145 MFI; Mean Fluorescence Intensity (MFI) [4]: 941 MFI |
| optimized humanized mAb 1237 (antibody, V domains shown, detected with anti-human Ig Fc) VH: QVQLVQSGAEVKKPGSSVKVSCKASGYTFTSYNMHWVRQAPGQGLEWIGAIYPGNGDTSYNQKFKGKATITADKSTSTAYMELSSLRSDDTAVYYCARSTYYAGDWNFNNWGQGTLVTVSS VL: DIQMTQSPSSLSASVGDRVTITCRASSSVSYIHWFQQKPGKAPKPLIYAASSLQSGVPSRFSGSGSGTDYTLTISSLQPEDFATYYCQQWTSNPPTFGGGTKLEIK | 395 | 161 | 132 | 1370 | 106 |  |
| optimized humanized mAb 1236 (antibody, V domains shown, detected with anti-human Ig Fc) VH: QVQLVQSGAEVKKPGSSVKVSCKASGYTFTSYNMHWVRQAPGQGLEWIGAIYPGNGDTSYNQKFKGKATITADKSTSTAYMELSSLRSDDTAVYYCARSTYYGGDWNFNNWGQGTLVTVSS VL: DIQMTQSPSSLSASVGDRVTITCRASSSVSYIHWFQQKPGKAPKPLIYAASSLQSGVPSRFSGSGSGTDYTLTISSLQPEDFATYYCQQWTSNPPTFGGGTKLEIK | 409 |  | 145 |  |  |  |
| optimized humanized mAb 1238 (antibody, V domains shown, detected with anti-human Ig Fc) VH: QVQLVQSGAEVKKPGSSVKVSCKASGYTFTSYNMHWVRQAPGQGLEWIGAIYPGNGDTSYNQKFKGKATITADKSTSTAYMELSSLRSDDTAVYYCARSTYYAGDWNFNDWGQGTLVTVSS VL: DIQMTQSPSSLSASVGDRVTITCRASSSVSYIHWFQQKPGKAPKPLIYAASSLQSGVPSRFSGSGSGTDYTLTISSLQPEDFATYYCQQWTSNPPTFGGGTKLEIK | 389 |  | 114 |  |  |  |
| optimized humanized mAb 1589 (antibody, V domains shown) VH: QVQLVQSGAEVKKPGSSVKVSCKASGYTFTSYNMHWVRQAPGQGLEWIGAIYPGNGATSYNQKFKGKATITADKSTSTAYMELSSLRSDDTAVYYCARSTYYAGDWNFNNWGQGTLVTVSS VL: DIQMTQSPSSLSASVGDRVTITCRASSSVSYIHWFQQKPGKAPKPLIYAASSLQSGVPSRFSGSGSGTDYTLTISSLQPEDFATYYCQQWTSNPPTFGGGTKLEIK |  | 345 |  | 1030 | 140 |  |
| optimized humanized mAb 1588 (antibody, V domains shown) VH: QVQLVQSGAEVKKPGSSVKVSCKASGYTFTFYNMHWVRQAPGQGLEWIGAIYPGNGDTSYNQKFKGKATITADKSTSTAYMELSSLRSDDTAVYYCARSTYYAGDWNFNNWGQGTLVTVSS VL: DIQMTQSPSSLSASVGDRVTITCRASSSVSYIHWFQQKPGKAPKPLIYAASSLQSGVPSRFSGSGSGTDYTLTISSLQPEDFATYYCQQWTSNPPTFGGGTKLEIK |  | 338 |  | 2070 | 140 |  |

Second part, led by results:

| Mean Fluorescence Intensity (MFI) (human CD20 antigen [5]) | Mean Fluorescence Intensity (MFI) (human CD20 antigen [6]) | Mean Fluorescence Intensity (MFI) (human CD20 antigen [7]) | Mean Fluorescence Intensity (MFI) (human CD20 antigen [8]) | Mean Fluorescence Intensity (MFI) (human CD20 antigen [9]) | Molecule | other results |
| --- | --- | --- | --- | --- | --- | --- |
|  | 529 |  | 1420 | 135 | optimized humanized mAb 1652 (antibody, V domains shown) VH: QVQLVQSGAEVKKPGSSVKVSCKASGYTFTSYNMHWVRQAPGQGLEWIGAIYPGNGATSYNQKFKGKATITADKSTSTAYMELSSLRSDDTAVYYCARSTYYAGDWNFNNWGQGTLVTVSS VL: DIQMTQSPSSLSASVGDRVTITCRASSSVSYIHWFQQKPGKAPKPLIYAASSLQSGVPSRFSGSGSGTDYTLTISSLQPEDFATYYCQQWQSNPPTFGGGTKLEIK |  |
|  | 450 |  | 1670 | 137 | optimized humanized mAb 1692 (antibody, V domains shown) VH: QVQLVQSGAEVKKPGSSVKVSCKASGYTFTSYNMHWVRQAPGQGLEWIGAIYPGNGDTSYNQKFKGKATITADKSTSTAYMELSSLRSDDTAVYYCARSTYYAGDWNFGNWGQGTLVTVSS VL: DIQMTQSPSSLSASVGDRVTITCRASSSVSYIHWFQQKPGKAPKPLIYAASSLQSGVPSRFSGSGSGTDYTLTISSLQPEDFATYYCQQWTSNPPTFGGGTKLEIK |  |
|  | 429 |  | 1630 | 135 | optimized humanized mAb 1590 (antibody, V domains shown) VH: QVQLVQSGAEVKKPGSSVKVSCKASGYTFTSYNMHWVRQAPGQGLEWIGAIYPGNGLTSYNQKFKGKATITADKSTSTAYMELSSLRSDDTAVYYCARSTYYAGDWNFNNWGQGTLVTVSS VL: DIQMTQSPSSLSASVGDRVTITCRASSSVSYIHWFQQKPGKAPKPLIYAASSLQSGVPSRFSGSGSGTDYTLTISSLQPEDFATYYCQQWTSNPPTFGGGTKLEIK |  |

— patent US20160376372A1 (VACCINEX, published 2016)
